# Experimental data taken from patent US20240058464A1 (Fortis Therapeutics, Inc., priority 2021, published 2024).
# B1: filgrastim (protein, chains of the INN, looked up)
# chain: MTPLGPASSLPQSFLLKCLEQVRKIQGDGAALQEKLCATYKLCHPEELVLLGHSLGIPWAPLSSCPSQALQLAGCLSQLHSGLFLYQGLLQALEGISPELGPTLDTLQLDVADFATTIWQQMEELGMAPALQPTQGAMPAFASAFQRRAGGVLVASHLQSFLEVSYRVLRHLAQP
# B2: pegfilgrastim (protein, chains of the INN, looked up)
# chain: TPLGPASSLPQSFLLKCLEQVRKIQGDGAALQEKLCATYKLCHPEELVLLGHSLGIPWAPLSSCPSQALQLAGCLSQLHSGLFLYQGLLQALEGISPELGPTLDTLQLDVADFATTIWQQMEELGMAPALQPTQGAMPAFASAFQRRAGGVLVASHLQSFLEVSYRVLRHLAQP
# modifications: PEG
# Test system: CD46 expression
# Assay: CD46 expression by RNA-sequencing in unpaired pre-treatment and post-treatment tumor biopsies
# Type: in vivo, human
# Settings: for CD46 expression diff: Post minus Pre, unpaired biopsies, log2-transformed counts; for CD46 expression Percentage change: post- vs pre-treatment unpaired biopsies; for CD46 expression Post: post-treatment biopsies, unpaired, RNA-seq log2-transformed normalized counts
Molecule,CD46 expression diff (Breast Cancer),CD46 expression Percentage change (Breast Cancer) [%],CD46 expression Post (Breast Cancer),CD46 expression diff (Colorectal Cancer),CD46 expression Percentage change (Colorectal Cancer) [%],CD46 expression Post (Colorectal Cancer),CD46 expression diff (Non-Small Cell Lung Cancer),CD46 expression Percentage change (Non-Small Cell Lung Cancer) [%],CD46 expression Post (Non-Small Cell Lung Cancer)
B1,0.02,0.3,6.23,–,–,–,–,–,–
B2,−0.13,−2.1,6.25,0.29,4.6,6.62,0.07,1.2,6.06
